Ends that are not written are not given here.
Legend:
[1] = target: T1, human IGF-1 receptor (human, UniProt P08069 31-1367); experiment: cell-based or functional assay; design: EC50, total phosphorylation, Insulin Receptor (Mar. 31, 2008): unit not given beside the values
[2] = target: T2, human insulin receptor (human, UniProt P06213 28-1382); experiment: cell-based or functional assay; design: EC50, total phosphorylation, Insulin Receptor (Mar. 31, 2008): unit not given beside the values
[3] = target: T2, human insulin receptor; experiment: SPA competition vs [125I]-insulin, membranes with human insulin receptor (Example 3); Jun. 5, 2008
Protocol: (§1) Non-specifically bound (NSB) radioactivity was measured in the wells with a four-fold concentration excess of “cold” native ligand than the highest concentration in test samples. Total bound radioactivity was detected in the wells with no competitor. Percent specific binding was calculated as following: % Specific Binding=(Bound-NSB/Total bound-NSB)×100. IC50 values were determined by using Origin software (OriginLab, Northampton, Mass.).

[4] = target: T2, human insulin receptor; experiment: SPA competition vs [125I]-insulin, membranes with human insulin receptor (Example 3); Dec. 4, 2007
Protocol: as §1

[5] = target: T2, human insulin receptor; experiment: SPA competition vs [125I]-insulin, membranes with human insulin receptor (Example 3); Nov. 9, 2007
Protocol: as §1

[6] = target: T2, human insulin receptor; experiment: SPA competition vs [125I]-insulin, membranes with human insulin receptor (Example 3); May 29, 2007
Protocol: as §1

[7] = target: T2, human insulin receptor; experiment: SPA competition vs [125I]-insulin, membranes with human insulin receptor (Example 3); May 22, 2007
Protocol: as §1

[8] = target: T2, human insulin receptor; experiment: SPA competition vs [125I]-insulin, membranes with human insulin receptor (Example 3); May 18, 2007
Protocol: as §1

[9] = target: T1, human IGF-1 receptor; experiment: SPA competition vs [125I]-IGF-1, membranes with human IGF-1 receptor (Example 3); Jun. 4, 2007
Protocol: as §1

[10] = target: T1, human IGF-1 receptor; experiment: SPA competition vs [125I]-IGF-1, membranes with human IGF-1 receptor (Example 3); Sep. 18, 2007
Protocol: as §1

B1: IGF-1 A:B (H5D10Y16L17) DPI (ligand)
chain 1: GIVDECCFRSCDLRRLEMYCA-NH2
chain 2: GPEHLCGADLVDALYLVCGDRGFY-NH2
modifications: disulfide (positions not given here); not fully specified (bridges)
In the case of B1, the “% IGF, total phosphorylation, IGF-1 Receptor” value (from here on “% IGF, total phosphorylation”) [1] is reported as 7.1%.

B2: IGF-1 A (H8 A9 N21):B(H5D10Y16L17 A22) DPI A-COOH (ligand)
chain 1: GIVDECCHASCDLRRLEMYCN-OH
chain 2: GPEHLCGADLVDALYLVCGDAGFY-NH2
modifications: disulfide (positions not given here); not fully specified (bridges)
With B2 the “% IGF, total phosphorylation” value [1] was 7.7%.

B3: IGF-1 A (H8 A9 N21):B(H5D10Y16L17) DPI A-COOH (ligand)
chain 1: GIVDECCHASCDLRRLEMYCN-OH
chain 2: GPEHLCGADLVDALYLVCGDRGFY-NH2
modifications: disulfide (positions not given here); not fully specified (bridges)
For B3, the “% IGF, total phosphorylation” value [1] was 181%.

B4: IGF-1 A:B(D10Y16L17) DPI A-COOH (ligand)
chain 1: GIVDECCFRSCDLRRLEMYCA-OH
chain 2: GPETLCGADLVDALYLVCGDRGFY-NH2
modifications: disulfide (positions not given here); not fully specified (bridges)
For B4, the “% IGF, total phosphorylation” value [1] was 112%, the “% Insulin, total phosphorylation, Insulin Receptor” value [2] was 1580% and the “% native insulin activity (0.6 nM)” value [3] was 144%. For the same binder, the “% native insulin activity (0.6 nM)” value [4] was 300% and the “% native insulin activity (0.6 nM)” value [5] was 231%.

B5: IGF-1 A:In (1-17)-IGF-1 B (18-30) (ligand)
chain 1: GIVDECCFRSCDLRRLEMYCA-NH2
chain 2: FVNQHLCGSHLVEALYLVCGDRGFYFNKPT-NH2
modifications: disulfide (positions not given here); not fully specified (bridges)
notes: The B chain is a chimera; The conversion is mine
B5 was tested, and the “% native insulin activity (0.6 nM)” value [6] was 24.2%, the “% insulin (in test)” value [7] was 14% and the “% native insulin activity (0.6 nM)” value [7] was 21.7%. The “% native insulin activity (0.6 nM)” value [8] was 22.5%.

B6: IGF-1 A:B(E10 Y16L17)-E31E32 B-COOH (ligand)
chain 1: GIVDECCFRSCDLRRLEMYCA-NH2
chain 2: GPETLCGAELVDALYLVCGDRGFYFNKPTEE-OH
modifications: disulfide (positions not given here); not fully specified (bridges)
For B6, the “EC50, total phosphorylation, Insulin Receptor (Mar. 31, 2008)” value [2] was 7.

B7: IGF-1 A:B(E10Y16L17) (ligand)
chain 1: GIVDECCFRSCDLRRLEMYCA-NH2
chain 2: GPETLCGAELVDALYLVCGDRGFYFNKPT-NH2
modifications: disulfide (positions not given here); not fully specified (bridges)
In the case of B7, the “% IGF, total phosphorylation” value [1] is reported as 13%, the “% Insulin, total phosphorylation, Insulin Receptor” value [2] is reported as 49.2% and the “EC50, total phosphorylation, Insulin Receptor (Mar. 31, 2008)” value [2] is reported as 2.57. The “% IGF-1 (in test)” value [9] was 6.8%, the “% native IGF-1 activity (0.55 nM)” value [9] was 7% and the “% native insulin activity (0.6 nM)” value [6] was 118%. For the same binder, the “% insulin (in test)” value [7] was 58.7%, the “% native insulin activity (0.6 nM)” value [7] was 90.9% and the “% IGF-1 (in test)” value [10] was 5%. The “% native IGF-1 activity (0.55 nM)” value [10] was 4.5%.
